Patent US7655453B2, “Recombinant Candida rugosa lipases” (Academia Sinica, priority 2001, dated 2010)

Substrate: CCCCC/C=C\C/C=C\CCCCCCCC(=O)O[C@H]1CC[C@@]2(C)C(=CC[C@H]3[C@@H]4CC[C@H]([C@H](C)CCCC(C)C)[C@@]4(C)CC[C@@H]32)C1
Assay: purified protein, by the assay type
Assay type: biochemical, Candida rugosa
Details: other: 37° C., pH 7.0, Trx-LIP4 29 nM, average of three independent experiments
Description: Construction of expression vectors The E. coli expression vectors pET23a-LIP4-S19 and pET23a-trx-LIP4-S19 were constructed as described in Tang et al. (2000) Protein Exp. Purif. 20: 308-313. Open-reading frames of LIP1, LIP2, LIP3, and LIP5 without the leader sequence were obtained by reverse transcription-polymerase chain reaction (RT-PCR). See Longhi et al. (1992) Biochim. Biophy. […] The chimeric DNA sequences were constructed by replacing the SphI(184)-BstXI(304) restriction DNA fragment of LIP4 with the corresponding fragments of LIP1, LIP2, LIP3, or LIP5, respectively. The resulting sequences encode mature chimeric C. rugosa lipases, denoted as TrX-LIP4/lid1, TrX-LIP4/lid2, TrX-LIP4/lid3, and TrX-LIP4/lid5, and were confirmed by DNA sequencing.
Preparation of recombinant LIP4 from E. coli. E. coli strain AD494(DE3) (Novagen, Milwaukee, Wis.) harboring recombinant plasmid was grown overnight at 37° C. in Luria-Bertani (LB) broth supplemented with 50 μg/mL ampicillin and 15 μg/mL kanamycin. The cells were then diluted 20-fold into fresh medium and incubated with shaking at 25° C. After adding IPTG to give a final concentration of 0.05 mM, the cells were incubated at 10° C. until OD600 reached 1.0.
Purification of recombinant LIP4. After induction, the AD494(DE3) transformants were harvested by centrifugation at 4000 g and 4° C. for 10 min. The cell pellet was resuspended in TE buffer (20 mM Tris-HCl and 2.5 mM EDTA, pH 8.0). The cells were disrupted with a sonicator, and the soluble fractions of the cell lysates were then collected by centrifugation at 15,000 g at 4° C. for 30 min. The soluble fractions were concentrated by ultrafiltration on a 10,000 molecular weight cut-off membrane. These samples were then applied onto a DEAE-Sepharose CL-6B (Pharmacia Biotech) column equilibrated with TE buffer. Recombinant lipases were eluted using a linear gradient of 0 to 100 mM (NH4)2SO4 over 5 column volumes.
The eluted proteins were then applied to a Butyl-Sepharose 4 Fast Flow (Pharmacia Biotech) hydrophobic interaction column. The column was washed with 5 bed volumes of TE buffer plus 1 mM and then 4 mM CHAPS. Bound proteins were then eluted with 5 bed volumes of TE buffer containing 30 mM CHAPS. The eluted samples were dialyzed against TE buffer and stored in a storage buffer (60 mM KCl, 10 mM Tris-HCl, 1.25 mM EDTA, 1% Triton X-100, and 17% glycerol, pH 7.5) at −20° C. Protein concentrations in the fractions were measured with the Bio-Rad assay kit, and esterase activity was determined using p-nitrophenyl butyrate as a substrate. The molecular masses of the purified recombinant lipases and a commercial lipase (Lipase Type VII, Sigma L1754) were determined by SDS-PAGE analysis. […]

B1: Candida rugosa lipase 4 (LIP4), recombinant, E. coli thioredoxin fused to the N-terminal (Trx-LIP4) (Diutina rugosa) (protein)
chain: SMNSRGPAGRLGSVPTATLANGDTITGLNAIINEAFLGIPFAQPPVGNLRFKPPVPYSASLNGQKFTSYGPSCMQMNPLGNWDSSLPKAAINSLMQSKLFQAVLPNGEDCLTINVVRPSGTKPGANLPVMVWIFGGGFEVGGSSLFPPAQMITASVLMGKPIIHVSMNYRVASWGFLAGPDIKAEGSGNAGLHDQRLGLQWVADNIAGFGGDPSKVTIFGESAGSMSVMCQLLWNDGDNTYNGKPLFRAAIMQSGAMVPSDPVDGPYGTQIYDQVVASAGCGSASDKLACLRSISNDKLFQATSDTPGALAYPSLRLSFLPRPDGTFITDDMFKLVRDGKCANVPVIIGDQNDEGTVFALSSLNVTTDAQARQYFKESFIHASDAEIDTLMAAYPSDITQGSPFDTGIFNAITPQFKRIAAVLGDLAFTLPRRYFLNHFQGGTKYSFLSKQLSGLPVIGTHHANDIVWQDFLVSHSSAVYNNAFIAFANDLDPNKAGLLVNWPKYTSSSQSGNNLLQINALGLYTGKDNFRTAGYDALFTNPSSFFV
In the case of B1, the Km is reported as 104 ± 10 10^−3 mM, the Vmax is reported as 2.9 µmol/min/mg and the kcat is reported as 3.37 ± 0.135 s⁻¹. For the same protein, the kcat/Km was 32300 ± 2320 M⁻¹ s⁻¹.
